Settings: Equus caballus, pH 7, 10 °C, GdnHCl, sodium dithionite 0.5-2 mM, reversible: yes

Chain of Cytochrome c wild type, P00004 (P00004 whole entry): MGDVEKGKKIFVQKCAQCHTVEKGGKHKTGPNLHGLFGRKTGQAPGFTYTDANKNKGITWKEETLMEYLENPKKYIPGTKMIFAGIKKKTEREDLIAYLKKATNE

Cytochrome c wild type, P00004
denaturant midpoint (higher = more stable) (Absorbance): 5.1 M | unfolding free energy (Absorbance): 18.8 kcal/mol | denaturant midpoint (higher = more stable) (Absorbance, transition: 3): 5.01 M | denaturant midpoint (higher = more stable) (Fluorescence): 5.1 M | unfolding free energy (Fluorescence): 18.8 kcal/mol | denaturant midpoint (higher = more stable) (Fluorescence, transition: 3): 5.02 M

Reference: FireProtDB (doi:10.1006/jmbi.2001.4993)
